{"source": "paper PMC8724787", "about": "(2021)", "binders": {"B1": {"name": "K^L66A C10 mAb mutant (IgG1) (antibody, V domains shown)", "VH": "EVQLVESGAEVKKPGASVKVSCKASGYTFTSYAMHWVRQAPGQRLEWMGWINAGNGNTKYSQKFQDRVTITRDTSASTAYMELSSLRSEDTAIYYCARDKVDDYGDYWFPTLWYFDYWGQGTLVTVSS", "VL": "QSALTQPASVSGSPGQSITISCTGTSSDVGGFNYVSWFQQHPGKAPKLMLYDVTSRPSGVSSRFSGSASGNTASLTISGLQAEDEADYYCSSHTSRGTWVFGGGTKLTVL"}, "B2": {"name": "C10 intact bivalent IgG1 (human monoclonal antibody EDE1 C10) (antibody, V domains shown)", "VH": "B1 VH", "VL": "B1 VL with A68K"}, "B3": {"name": "C10 monovalent antigen binding fragment (Fab) (Fab, V domains shown)", "VH": "B1 VH", "VL": "B1 VL with A68K"}}, "key": {"[1]": {"target": "ZIKV-H/PF/2013 sE protein (aa 1-404) (Zika virus (strain H/PF/2013))", "assay": "BLI"}, "[2]": {"target": "DENV3 strain H87 envelope (E) protein on virions (Dengue virus 3 (strain H87))", "assay": "ELISA; apparent"}, "[3]": {"target": "ZIKV strain PF13 envelope (E) protein on virions (Zika virus (strain PF13), UniProt A0A024B7W1)", "assay": "ELISA; apparent"}, "[4]": {"target": "DENV4 strain 1-0093 envelope (E) protein on virions (Dengue virus 4 (strain 1-0093))", "assay": "ELISA; apparent"}, "[5]": {"target": "DENV2 strain 16681 envelope (E) protein on virions (Dengue virus 2 (strain 16681))", "assay": "ELISA; apparent"}}, "note": "Positions count from the first letter of the chain named. In names and notes the source's numbering stands."}
{"binder": "B1", "values": [{"measurement": "Kd", "setting": "[1]", "value": 40.3, "unit": "nM"}]}
{"binder": "B2", "values": [{"measurement": "Kd", "setting": "[1]", "value": 16.2, "unit": "nM"}, {"measurement": "Kd", "setting": "[2]", "value": 2.03, "unit": "nM"}, {"measurement": "Kd", "setting": "[3]", "value": 0.41, "unit": "nM"}, {"measurement": "Kd", "setting": "[4]", "value": 1.42, "unit": "nM"}]}
{"binder": "B3", "values": [{"measurement": "Kd", "setting": "[2]", "value": 165, "unit": "nM"}, {"measurement": "Kd", "setting": "[3]", "value": 1.16, "unit": "nM"}, {"measurement": "Kd", "setting": "[4]", "value": 29.2, "unit": "nM"}, {"measurement": "Kd", "setting": "[5]", "value": 38.8, "unit": "nM"}]}
